In patent US20030223991A1 one finds Bioassay IC50 (inhibition of β-hexosaminidase secretion by mouse mast cells expressing human CD200Ra) and Bioassay IC50 (inhibition of mast cell secretion) data, which are given here for 2 substances.

Assay [1] deals with human CD200Ra (SEQ ID NO:2) (human) (UniProt Q8TD46). The experiment in a line: cell-based or functional assay.
Assay [2] concerns the target mouse CD200Ra (SEQ ID NO:6) (mouse) (UniProt Q9ES57). As to the kind of experiment: cell-based or functional assay.
UniProt Q9ES57, sequence (Q9ES57 26-326 limits assumed): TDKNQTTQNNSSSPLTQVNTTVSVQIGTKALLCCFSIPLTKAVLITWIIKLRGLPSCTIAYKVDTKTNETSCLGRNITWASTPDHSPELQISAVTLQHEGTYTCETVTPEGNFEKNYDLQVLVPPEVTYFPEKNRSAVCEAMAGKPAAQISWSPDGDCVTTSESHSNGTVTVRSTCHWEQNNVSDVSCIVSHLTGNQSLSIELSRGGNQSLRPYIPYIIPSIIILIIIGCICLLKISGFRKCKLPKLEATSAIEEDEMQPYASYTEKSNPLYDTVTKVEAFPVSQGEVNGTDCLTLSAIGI

UniProt Q8TD46, sequence (Q8TD46 other isoform, or with tags, fused parts or gaps limits assumed): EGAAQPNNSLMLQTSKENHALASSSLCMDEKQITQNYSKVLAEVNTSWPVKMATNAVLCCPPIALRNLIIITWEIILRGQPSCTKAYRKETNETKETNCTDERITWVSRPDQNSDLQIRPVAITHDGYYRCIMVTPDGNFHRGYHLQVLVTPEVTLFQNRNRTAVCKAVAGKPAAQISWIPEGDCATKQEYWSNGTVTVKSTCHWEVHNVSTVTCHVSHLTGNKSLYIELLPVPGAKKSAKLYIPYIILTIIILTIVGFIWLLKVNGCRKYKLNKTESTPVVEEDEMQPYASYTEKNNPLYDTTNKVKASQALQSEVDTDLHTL

“huCD200-Ig (from UniProt P41217 31-232) (Fc fusion)” had a Bioassay IC50 (inhibition of β-hexosaminidase secretion by mouse mast cells expressing human CD200Ra) in assay [1] of 0.3 nM. As to “muCD200-Ig (from UniProt O54901 31-232) (Fc fusion)”, in assay [2], the Bioassay IC50 (inhibition of mast cell secretion) amounted to 1.3 nM.
